Data from paper doi:10.1101/301655 (bioRxiv, 2018).

T1: Lon protease (Caulobacter crescentus) (Caulobacter crescentus, UniProt P0CAW0 1-799)
T1 sequence (looked up): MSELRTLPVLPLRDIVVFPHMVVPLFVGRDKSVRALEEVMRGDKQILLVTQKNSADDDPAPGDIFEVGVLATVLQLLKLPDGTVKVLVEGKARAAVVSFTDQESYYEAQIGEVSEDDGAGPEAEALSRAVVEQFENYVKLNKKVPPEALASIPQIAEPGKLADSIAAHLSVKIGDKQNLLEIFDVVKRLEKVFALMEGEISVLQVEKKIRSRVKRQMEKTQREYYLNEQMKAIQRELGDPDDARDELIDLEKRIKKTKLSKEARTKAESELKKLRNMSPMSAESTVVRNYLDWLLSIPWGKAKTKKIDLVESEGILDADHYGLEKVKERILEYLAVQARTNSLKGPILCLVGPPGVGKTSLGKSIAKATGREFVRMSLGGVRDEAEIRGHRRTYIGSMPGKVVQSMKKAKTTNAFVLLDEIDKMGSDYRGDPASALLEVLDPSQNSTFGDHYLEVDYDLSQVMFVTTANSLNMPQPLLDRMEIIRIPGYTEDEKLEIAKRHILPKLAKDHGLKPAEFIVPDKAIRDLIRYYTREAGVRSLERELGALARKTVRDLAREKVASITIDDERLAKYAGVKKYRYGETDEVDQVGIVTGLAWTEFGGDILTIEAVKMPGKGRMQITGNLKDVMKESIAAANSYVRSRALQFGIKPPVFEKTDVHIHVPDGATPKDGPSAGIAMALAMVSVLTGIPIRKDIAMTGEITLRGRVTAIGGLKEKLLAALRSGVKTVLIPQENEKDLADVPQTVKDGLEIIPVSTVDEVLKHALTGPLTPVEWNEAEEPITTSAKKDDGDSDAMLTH

B1: DnaA fragment 117-391 (linker domain II and AAA+ ATPase domain III) (domain or fragment, Caulobacter crescentus, UniProt P0CAU4 117-391, looked up)
chain: AVAAEPIEIVLPVSTDAPTVVAPSAKSPRTQGLQERFTFETFVPGPANEFAHAVARRIANWADGHFNPVLFHGPYGFGKTHLLNALAWEAMRNAPEKRVVYLTAERFLSTFVRAVMDRQTAAFKEELRAADLLIIDDVHFIAGKQSTQEELFHTLTALVGEGGRVVFSADRPPSAMTEMDAHLRSHLSAGLVCGLEPADRNLRLGILERKIQTLGAAHGFEPSIRPEVMQFLADRFTDSVRELEGALNTLSARAGEGLSRMTLDEVQAILRPHLR
B2: DnaA fragment 143-391 (AAA+ ATPase domain III) (domain or fragment, Caulobacter crescentus, UniProt P0CAU4 143-391, looked up)
chain: SPRTQGLQERFTFETFVPGPANEFAHAVARRIANWADGHFNPVLFHGPYGFGKTHLLNALAWEAMRNAPEKRVVYLTAERFLSTFVRAVMDRQTAAFKEELRAADLLIIDDVHFIAGKQSTQEELFHTLTALVGEGGRVVFSADRPPSAMTEMDAHLRSHLSAGLVCGLEPADRNLRLGILERKIQTLGAAHGFEPSIRPEVMQFLADRFTDSVRELEGALNTLSARAGEGLSRMTLDEVQAILRPHLR
B3: DnaA fragment 143-490 (domains III+IV) (domain or fragment, Caulobacter crescentus, UniProt P0CAU4 143-490, looked up)
chain: SPRTQGLQERFTFETFVPGPANEFAHAVARRIANWADGHFNPVLFHGPYGFGKTHLLNALAWEAMRNAPEKRVVYLTAERFLSTFVRAVMDRQTAAFKEELRAADLLIIDDVHFIAGKQSTQEELFHTLTALVGEGGRVVFSADRPPSAMTEMDAHLRSHLSAGLVCGLEPADRNLRLGILERKIQTLGAAHGFEPSIRPEVMQFLADRFTDSVRELEGALNTLSARAGEGLSRMTLDEVQAILRPHLRSGEKRITIDDIQKATAEHYGMKQADLLSERRNRAVARPRQAAMWLAKQLTTRSLPDIGRRFGGRDHTTVLHAVRRIEALRAEDSALSHDLETLTRKLRG

Biological target: T1, Lon protease (Caulobacter crescentus)
Assay: filtration-spin binding assay

binding result | Binder
binds | B1
binds | B2
binds | B3
